This data set is described as follows: soluble fraction after stress (log2 fold change); higher = more stays soluble; pooled small domains, quantitative proteomics. The settings on record: stress: 50 degC. An outline of the steps: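 Quantitative proteomics served as the high-throughput read-out for pooled custom libraries of small protein domains. Each was stressed at 50°C. Aggregation propensity is expressed as the base-two log fold change in soluble protein after stress. A higher value means a larger share of the protein remains in solution.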
Consider “HMYKLTYVVDGEVYLEETVSYGSKIAAAPAPEKEGYTFSGWEGLPEVMPAKDVTVSGSFTVN”, for which the “soluble fraction (log2)” value is -0.405. Then “HMYKMKDRIKKIMEMQRTTQQDFADQLKIAPATLSSIFTGRTRPTLAIVDAIKSRFPQISTDWLMFGKGDM”, with -0.219. The figure for “HMYKNAFITYDNNLYYLGSDSKMAIGWQSIGGNTYYFRNWGGMITGKQVIDGKTYVFDEDGKLVQSPD” is -1.12. On to “HMYLNYQTIGKRIRLLRKQQHLTQMTLAEMVDKSPTYISLVENGQKGPSLETLIDVANALKVTMDVLLAEY”, for which the “soluble fraction (log2)” value is -4.39. On to “HMYLPPYMEVRAVMILDGKPMALMYIEGEGDGLIVSPGYKFDNGKGKVVSITPTKVVVLWAGTKMELG”, for which the “soluble fraction (log2)” value was -2.14.

With “HMYLYHDLSDEAKAMGDEYVSVEHLVLALIRYPNNAVKELFREFGITRERFLQVLSTIRGNQRVTSDNPEA”, the “soluble fraction (log2)” value stood at 0.0309. Then “HMYMFSGQRLKSLRKEKKMSQEKLGSLLNISKVAVSNWENAKSFPTMDNLNELAKVLEVEPHYF”, with -1.16. Consider “HMYMKLSVKDAALFLSVSPETVYRWVKQEEIPYHTVNDQLRFNRAELLEWATARSLEVSPDLFVP”, for which the “soluble fraction (log2)” value is -3.04. The figure for “HMYMWQVEDLIRANGLDIERIKDSIIRPYELDEERKRELTQWYEDLIDMMRREGVAQSGHLQIN” is -2.45; for “HMYNMEELAGHTEKVYNSLPEELKLVIKLREIENMSYDEISLKTGMPIGTVRSRLHRAREILVDSLKDY” it is -0.367; for “HMYQNRLFYTLKTGETVADLSKSQDINLSTIWSLNKHLYSSESEMMKAAPGQQIILPLKKLP” it is -0.105. Then “HMYQPLRDVIFETLRKAIVSGDIKPGERLMEVSLANQMGVSRTPVREAIRRLEAEGLVTMTPRKGTHVAE”, with -0.399. The figure for “HMYQRLPFSFANRYKMVLESQHPERAPILYYVEPLKSAAIIEVSRVVKNGFTPQAITLDEFDKKLTDAYQR” is -0.908. With “HMYRLSPSWRIVERDDGFEIYGGDDARFQLDPSPLVSRLAAGDAVTRDGLDPTGAIEFEQLLSAGMIRPEI”, the “soluble fraction (log2)” value is -0.124. For “HMYRYTTFKVKEADTLLPFIQKSLNGISHNRAKAILTGGGVLVDKKITRAYDFALRPGMTVEISKSKP”, the “soluble fraction (log2)” value was -0.103.

Take “HMYRYYSTLRPITPGAYPKPADNPAMLIHNFDNREYVGKIGREAWGYVEYNNPLTKEQIEAFDFVAE”: the “soluble fraction (log2)” value was found to be 0.0677.

With “HMYSDIERAMTNAPEQFANKQAVLDFLNKNRIKKSEVDDYRIASLLKLYDDASPISKTEIISQVRT”, the “soluble fraction (log2)” value is 0.149. The figure for “HMYSDQRMEIFLEHLPDFIEQLSHKHVTRQMVWEDYRMIYPDGYGKSQFFFHLAQNLKAQKP” is -3.3. Then “HMYSYSFTSSEGSTFEGQLIRVEESQVTILRYADQKEFSIPKSRFIEADQVYFERWAIENPQL”, with -4.33. Then “HMYSYSGSVSNTHDVPVSVVLKDAEGVAIASWDLQAKQSLNISAKDIATSSGTIEITGDGVSETKTVTFTK”, with 0.391.

Take “HMYTVKELSRLTGLTPRTLRYYDAIGLLSPARNRDNDYRLYGGAEVDRLQEILLYREMGLPLEEIGRILD”: the “soluble fraction (log2)” value is -1.45. With “HMYTVQPHESLWSIAASQLGDGHRFTEIVDLNQELLGGKANFIKPGWVLQIP”, the “soluble fraction (log2)” value was -0.299. Then “HMYTVVVGDSPSLIADKTGVPLKELTAMNPNLSDNFLPGKQLL”, with 0.000825.

As to “HMYVEVPNFIGVPLVKVQSELASLGLVFNKSVVYQTSPYLKGNILDQRPLPGEVVPLNTEMSFTVSSGPA”, the “soluble fraction (log2)” value turned out to be 0.453. With “HMYVKIAADAAMPYTIKRVVTDYSSAALDAAYDGSLPKWLTISSSTKDAGSGLYRHEIIYTVTAHPE”, the “soluble fraction (log2)” value was -0.68. The figure for “HMYVYEPGEFAVRGSILDVYSYASEFPYRIDFFGDDVESIRTFEVQTQLSKEAKDRVSIVPDTEQ” is -0.181; for “HMYYNDEELDGYRGTPSDAYSDNAVEEFREVLYTLREDEVSGWVRSLQLRGIFLPDAIKDETFLI” it is -1.59; for “HMYYTAPDGRKREILDAALRLIAAGGPDSLTYRRVADEAGVPLGSLTYYFEAREDLIREAFRLYIAEASR” it is -3.04.

(Values after the domain aggregation screens of Martell et al. (2025).)
